Source: PMC7884711, “Identification of efficient prokaryotic cell-penetrating peptides with applications in bacterial biotechnology” (Communications Biology, 2021)
Where two headings read alike, the source gives them in different places. Where no end group is shown, it is not given here.

What was measured:
[1] = system: E. coli DH5α cells; test: Inhibition of bacterial cell growth by CPPs (Max OD600 relative to control); type: cell-based, Escherichia coli; conditions: for Max OD (%) (Figure 3f): E. coli DH5α diluted 1/1000 in LB, 5 μg TAMRA-CPP (0.1 μg/μL), OD600 monitored 18 h, max OD of treated cells / max OD of control cells; for Growth rate (%): E. coli growth with CPP, relative to control; for Max OD (%): library CPPs, E. coli growth to stationary phase, relative to non-CPP-treated control, mean of n = 3
Protocol: E. coli DH5α cells were grown until OD600 = 1 at 37 °C with shaking at 200 rpm. […] Then, cell growth (OD600) was monitored for 18 h by using the Synergy^TM H1 hybrid multi-mode microplate reader (BioTek, Vermont, USA). As a control, we used E. coli cells that were not treated with CPPs.

[2] = system: E. coli DH5α cells; test: Penetration efficiency of TAMRA-labeled CPPs, electroporation-based method, flow cytometry; type: cell-based, Escherichia coli; conditions: for Penetration efficiency (TAMRA fluorescence in E. coli): library CPPs, electroporation, Tris buffer pH 7.5, 1 h, mean of n = 3–5; for Cell penetration efficiency (TAMRA fluorescence), Electrooration - Tris buffer / Cell penetration efficiency (TAMRA fluorescence), Electrooration - DW: electrocompetent E. coli DH5α, 5 μg TAMRA-CPP, electroporation 1.8 kV; for Cell penetration efficiency (TAMRA fluorescence), Electrooration - Tris buffer: 20 mM Tris-HCl pH 7.5, 1 h; for Cell penetration efficiency (TAMRA fluorescence), Electrooration - DW: distilled water, 1 h
Source text: (§1) (Fig. 2a). […] First, we prepared electrocompetent and chemically competent cells.

[3] = system: E. coli DH5α cells; test: Penetration efficiency of TAMRA-labeled CPPs, chemical (CaCl2) treatment method, flow cytometry; type: cell-based, Escherichia coli; conditions: for Penetration efficiency (TAMRA FI): TAMRA fluorescence intensity in E. coli, library screen of 98 CPPs; for Cell penetration efficiency (TAMRA fluorescence), Chemical (CaCl2) method - Tris buffer / Cell penetration efficiency (TAMRA fluorescence), Chemical (CaCl2) method - DW: 50 mM CaCl2-treated E. coli DH5α, 5 μg TAMRA-CPP; for Cell penetration efficiency (TAMRA fluorescence), Chemical (CaCl2) method - Tris buffer: 20 mM Tris-Cl pH 7.5, 1 h; for Cell penetration efficiency (TAMRA fluorescence), Chemical (CaCl2) method - DW: 5 × 10^7 cells/50 μL, distilled water, 1 h
Source text: as §1

[4] = system: wild-type and tetA-harboring Methylomonas sp. DH-1; test: NiCl2 susceptibility, colony counts on NMS agar; type: cell-based; conditions: for Number of colonies, Wild-type cells: Methylomonas sp. DH-1, NMS agar; for Number of colonies, tetA-harboring cells: Methylomonas sp. DH-1 with genomic tetA, NMS agar
Protocol: (§2) To investigate the susceptibility of tetA-harboring E. coli and tetA-harboring Methylomonas sp. DH-1 to NiCl2, wild-type cells and the cells containing the tetA gene in the plasmid (E. coli) or in the genome (Methylomonas sp. DH-1) were incubated in an LB (E. coli) or NMS (Methylomonas sp. DH-1) agar plate with different concentrations of NiCl2 (0.5–8 mM). The optimal NiCl2 concentrations that were determined to counter select tetA-removed cells were 2 mM and 4 mM for E. coli and Methylomonas sp. DH-1, respectively.

[5] = system: wild-type and tetA plasmid-harboring E. coli; test: NiCl2 susceptibility, colony counts on LB agar; type: cell-based, Escherichia coli; conditions: for Number of colonies, Plasmid-harboring cells: E. coli with tetA plasmid; for Number of colonies, Plasmid-harboring cells / Number of colonies, Wild-type cells: LB agar, 37 °C 24 h; for Number of colonies, Wild-type cells: E. coli
Source text: Additionally, for the counterselection of plasmid-removed cells, we inserted the tetracycline resistance gene (tetA) into the plasmid to be removed. With the plasmid, the cells can survive in tetracycline media but not in Ni^2+ media. Conversely, without the plasmid, the cells cannot survive in tetracycline media but can survive in Ni^2+ media. The tetA gene induces host cells to accumulate twice as much Ni^2+ as normal cells, so tetA-containing cells are more susceptible to NiCl2 toxicity than normal cells. To determine a suitable Ni^2+ concentration for the selection of plasmid-removed cells, wild-type E. coli cells and tetracycline-resistant cells harboring the tetA gene in the plasmid were grown on Luria–Bertani (LB) agar plates containing 1–4 mM NiCl2. As shown in Supplementary Table 1, after incubation at 37 °C for 24 h, wild-type E. coli cells were capable of growing on LB agar plates containing up to 2.2 mM NiCl2. […] Therefore, we chose 2.0 mM NiCl2 as the selection concentration (Supplementary Table 1).
as §2

[6] = class (Cytotoxic / Safe), cutoff of 50%

## TatsMTS (TMG) (GRKKRRQRRRMVSAL; also: TAMRA label, site not given here) [CPP 71, TAMRA-labeled CPP of the 98-CPP library]
[1]; replicate 1
  Max OD (%) (Figure 3f): 73.904%
[1]; replicate 2
  Max OD (%) (Figure 3f): 87.9958%
[1]; replicate 3
  Max OD (%) (Figure 3f): 80.3758%
[1]
  Growth rate (%): 80.7585%
  Max OD (%): 80.8%
[1]; [6]
  Anti-bacterial activity: Safe
[2]
  Penetration efficiency (TAMRA fluorescence in E. coli): 3266.3 A.U.

## rrrrrrrrrcqcrrkn [CPP 80]
[1]; replicate 1
  Max OD (%) (Figure 3f): 65.3033%
[1]; replicate 2
  Max OD (%) (Figure 3f): 60%
[1]; replicate 3
  Max OD (%) (Figure 3f): 55.5286%
[1]
  Growth rate (%): 60.2773%
[1]; [6]
  Anti-bacterial activity: Safe
[3]
  Penetration efficiency (TAMRA FI): 1432.29

## Tat49-57 (RKKRRQRRR; also: TAMRA label, site not given here) [CPP 45, TAMRA-labeled CPP of the 98-CPP library]
[1]; replicate 1
  Max OD (%) (Figure 3f): 75.4515%
[1]; replicate 2
  Max OD (%) (Figure 3f): 62.3077%
[1]; replicate 3
  Max OD (%) (Figure 3f): 70.8361%
[1]
  Growth rate (%): 69.5318%
  Max OD (%): 69.5%
[1]; [6]
  Anti-bacterial activity: Safe
[2]
  Penetration efficiency (TAMRA fluorescence in E. coli): 2837.5 A.U.

## [Cl][Ni][Cl] [NiCl2]
[4]; NiCl2 0.5 mM
  Number of colonies, Wild-type cells: 180 ± 6.42
  Number of colonies, tetA-harboring cells: 119 ± 6.42
[4]; NiCl2 1 mM
  Number of colonies, Wild-type cells: 128 ± 10.50
  Number of colonies, tetA-harboring cells: 125 ± 4.40
[4]; NiCl2 2 mM
  Number of colonies, Wild-type cells: 114 ± 4.04
  Number of colonies, tetA-harboring cells: 3 ± 2.08
[4]; NiCl2 4 mM
  Number of colonies, Wild-type cells: 87 ± 16.09
  Number of colonies, tetA-harboring cells: 0
[4]; NiCl2 8 mM
  Number of colonies, Wild-type cells: 21 ± 5.03
  Number of colonies, tetA-harboring cells: 0
[4]; NiCl2 >8.0 mM
  Number of colonies, Wild-type cells: 0
  Number of colonies, tetA-harboring cells: 0
[5]; NiCl2 1.8 mM
  Number of colonies, Plasmid-harboring cells: 10.67 ± 2.27
  Number of colonies, Wild-type cells: 2492 ± 94.27
[5]; NiCl2 1.9 mM
  Number of colonies, Plasmid-harboring cells: 4 ± 1.15
  Number of colonies, Wild-type cells: 2065.33 ± 181.07
[5]; NiCl2 2 mM
  Number of colonies, Plasmid-harboring cells: 0.34 ± 0.19
  Number of colonies, Wild-type cells: 1010.67 ± 121.71
[5]; NiCl2 2.1 mM
  Number of colonies, Plasmid-harboring cells: 0
  Number of colonies, Wild-type cells: 776 ± 73.11
[5]; NiCl2 2.2 mM
  Number of colonies, Plasmid-harboring cells: 0
  Number of colonies, Wild-type cells: 29 ± 4.40
[5]; NiCl2 2.3 mM
  Number of colonies, Plasmid-harboring cells: 0
  Number of colonies, Wild-type cells: 0.67 ± 0.19
[5]; NiCl2 >2.30 mM
  Number of colonies, Plasmid-harboring cells: 0
  Number of colonies, Wild-type cells: 0
[5]; LB agar plates, 37 °C, 24 h
  NiCl2 concentration up to which wild-type E. coli cells were capable of growing: 2.2 mM
[5]; LB agar plates, 37 °C, 24 h, 2.0 mM NiCl2
  Growth of tetA-harboring E. coli cells on plates containing 2.0 mM NiCl2: not able to grow

## CTP (GGRRARRRRRR; also: TAMRA label, site not given here) [CPP 96, TAMRA-labeled CPP of the 98-CPP library]
[1]; replicate 1
  Max OD (%) (Figure 3f): 80.7143%
[1]; replicate 2
  Max OD (%) (Figure 3f): 88.7755%
[1]; replicate 3
  Max OD (%) (Figure 3f): 86.7347%
[1]
  Growth rate (%): 85.4082%
  Max OD (%): 85.4%
[1]; [6]
  Anti-bacterial activity: Safe
[2]
  Penetration efficiency (TAMRA fluorescence in E. coli): 3688.0 A.U.

## Tat48-57 (GRKKRRQRRR; also: TAMRA label, site not given here) [CPP 70, TAMRA-labeled CPP of the 98-CPP library]
[1]; replicate 1
  Max OD (%) (Figure 3f): 81.1065%
[1]; replicate 2
  Max OD (%) (Figure 3f): 82.6722%
[1]; replicate 3
  Max OD (%) (Figure 3f): 78.7056%
[1]
  Growth rate (%): 80.8281%
  Max OD (%): 80.8%
[1]; [6]
  Anti-bacterial activity: Safe
[2]
  Penetration efficiency (TAMRA fluorescence in E. coli): 4043.3 A.U.

## Penetratin (RQIKIWFPNRRMKWKK; also: TAMRA label, site not given here) [CPP 17, TAMRA-labeled CPP of the 98-CPP library, one of five used to evaluate delivery methods]
[1]
  Anti-bacterial activity: Safe
  Growth rate (%): 56.8825%
[2]; replicate 1
  Cell penetration efficiency (TAMRA fluorescence), Electrooration - Tris buffer: 794.592 A.U.
  Cell penetration efficiency (TAMRA fluorescence), Electrooration - DW: 634.038 A.U.
[2]; replicate 2
  Cell penetration efficiency (TAMRA fluorescence), Electrooration - Tris buffer: 585.819 A.U.
  Cell penetration efficiency (TAMRA fluorescence), Electrooration - DW: 587.6 A.U.
[2]; replicate 3
  Cell penetration efficiency (TAMRA fluorescence), Electrooration - Tris buffer: 1028.54 A.U.
  Cell penetration efficiency (TAMRA fluorescence), Electrooration - DW: 471.96 A.U.
[2]; replicate 4
  Cell penetration efficiency (TAMRA fluorescence), Electrooration - Tris buffer: 181.291 A.U.
[3]; replicate 1
  Cell penetration efficiency (TAMRA fluorescence), Chemical (CaCl2) method - Tris buffer: 29.4497 A.U.
  Cell penetration efficiency (TAMRA fluorescence), Chemical (CaCl2) method - DW: 134.244 A.U.
[3]; replicate 2
  Cell penetration efficiency (TAMRA fluorescence), Chemical (CaCl2) method - Tris buffer: 24.3955 A.U.
  Cell penetration efficiency (TAMRA fluorescence), Chemical (CaCl2) method - DW: 173.67 A.U.
[3]; replicate 3
  Cell penetration efficiency (TAMRA fluorescence), Chemical (CaCl2) method - Tris buffer: 28.6202 A.U.
  Cell penetration efficiency (TAMRA fluorescence), Chemical (CaCl2) method - DW: 170.238 A.U.
[3]
  Penetration efficiency (TAMRA FI): 647.56

## Tat (GRKKRRQRRRPPQRKC; also: TAMRA label, site not given here) [CPP 67, TAMRA-labeled CPP of the 98-CPP library]
[1]; replicate 1
  Max OD (%) (Figure 3f): 60.9603%
[1]; replicate 2
  Max OD (%) (Figure 3f): 54.071%
[1]; replicate 3
  Max OD (%) (Figure 3f): 61.2735%
[1]
  Growth rate (%): 58.7683%
  Max OD (%): 58.8%
[1]; [6]
  Anti-bacterial activity: Safe
[2]
  Penetration efficiency (TAMRA fluorescence in E. coli): 2821.8 A.U.
